Reference: US7960513B2, “Antibody against a human ADAM protease” (Monash University, priority 2004, dated 2011)
Entries after “also recorded” stand apart in the source; their conditions may differ.

What was measured:
EphA3/ephrin-A5 complex = target: T1, EphA3/ephrin-A5 complex (Homo sapiens, UniProt P29320+P52803); experiment: In vitro binding (Protein-A pull-down) assay
T1 construct: incubated with Fc-tagged ectodomains of Eph-A3, EphB2, EphB4 and ephrin-A2, ephrin-A5, ephrin-B2 (R&D systems)
T1 sequence (P29320 21-541 limits assumed): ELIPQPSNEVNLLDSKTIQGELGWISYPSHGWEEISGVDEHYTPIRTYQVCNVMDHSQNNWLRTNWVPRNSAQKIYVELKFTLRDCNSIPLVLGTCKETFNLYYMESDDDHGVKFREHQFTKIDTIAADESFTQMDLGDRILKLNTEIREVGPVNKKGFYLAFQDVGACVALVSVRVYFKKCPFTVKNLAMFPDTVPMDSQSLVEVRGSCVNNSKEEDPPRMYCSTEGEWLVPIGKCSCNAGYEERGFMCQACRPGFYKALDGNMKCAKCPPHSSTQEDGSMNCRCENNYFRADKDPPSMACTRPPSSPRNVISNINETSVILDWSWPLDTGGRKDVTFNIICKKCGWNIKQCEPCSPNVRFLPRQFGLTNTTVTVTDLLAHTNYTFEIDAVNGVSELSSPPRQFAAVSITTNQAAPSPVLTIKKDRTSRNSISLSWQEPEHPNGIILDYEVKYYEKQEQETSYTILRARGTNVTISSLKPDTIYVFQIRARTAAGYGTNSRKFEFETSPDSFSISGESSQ
T1 sequence (P52803 21-203 limits assumed): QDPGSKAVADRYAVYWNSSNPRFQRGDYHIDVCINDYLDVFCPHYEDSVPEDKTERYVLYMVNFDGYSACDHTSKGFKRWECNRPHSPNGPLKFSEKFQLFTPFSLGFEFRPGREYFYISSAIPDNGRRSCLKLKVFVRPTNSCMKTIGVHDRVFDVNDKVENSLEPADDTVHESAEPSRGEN
Procedure: (§1) Pull-down experiments were done as follows: ADAM10D+C, ADAM17D+C w.t. or the alanine mutants (˜15 μg) were incubated with Fc-tagged ectodomains of Eph-A3, EphB2, EphB4 and ephrin-A2, ephrin-A5, ephrin-B2 (R&D systems) at 4° C. for 30 min in 500 μL of binding buffer containing 10 mM HEPES (pH 7.4), 150 mM NaCl and 0.05% of Triton X-100. To test binding to the preformed EphA3/ephrin-A5 complex, 5 μg of the untagged ephrin-A5 was incubated with Fc tagged EphA3 for 30 min at 4° C. followed by the addition of ADAM10. The proteins were incubated for an additional 30 min., when Protein-A-Sepharose (Amersham) beads were added to the reaction mixture and shaken at 4° C. for 2h. The beads were then harvested by centrifugation, washed once with 500 μl of binding buffer and the bound proteins were separated on a 10-20% gradient polyacrylamide gel. The binding of the individual ADAM domains was carried out likewise using 15 μg of the disintegrin and 8 μg of the cysteine-rich domain.

EphB4/ephrin-B2 complex = target: T2, EphB4/ephrin-B2 complex (Homo sapiens, UniProt P52799+P54760); experiment: In vitro binding (Protein-A pull-down) assay; conditions: Protein-A capture
T2 construct: incubated with Fc-tagged ectodomains of Eph-A3, EphB2, EphB4 and ephrin-A2, ephrin-A5, ephrin-B2 (R&D systems); purchased R&D systems
T2 sequence (P52799 28-229 limits assumed): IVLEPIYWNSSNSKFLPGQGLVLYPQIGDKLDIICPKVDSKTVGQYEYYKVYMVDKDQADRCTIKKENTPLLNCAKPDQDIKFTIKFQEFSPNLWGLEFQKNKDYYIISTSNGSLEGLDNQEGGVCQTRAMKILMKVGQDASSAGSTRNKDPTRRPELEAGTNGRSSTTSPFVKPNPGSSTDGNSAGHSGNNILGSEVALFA
T2 sequence (P54760 16-539 limits assumed): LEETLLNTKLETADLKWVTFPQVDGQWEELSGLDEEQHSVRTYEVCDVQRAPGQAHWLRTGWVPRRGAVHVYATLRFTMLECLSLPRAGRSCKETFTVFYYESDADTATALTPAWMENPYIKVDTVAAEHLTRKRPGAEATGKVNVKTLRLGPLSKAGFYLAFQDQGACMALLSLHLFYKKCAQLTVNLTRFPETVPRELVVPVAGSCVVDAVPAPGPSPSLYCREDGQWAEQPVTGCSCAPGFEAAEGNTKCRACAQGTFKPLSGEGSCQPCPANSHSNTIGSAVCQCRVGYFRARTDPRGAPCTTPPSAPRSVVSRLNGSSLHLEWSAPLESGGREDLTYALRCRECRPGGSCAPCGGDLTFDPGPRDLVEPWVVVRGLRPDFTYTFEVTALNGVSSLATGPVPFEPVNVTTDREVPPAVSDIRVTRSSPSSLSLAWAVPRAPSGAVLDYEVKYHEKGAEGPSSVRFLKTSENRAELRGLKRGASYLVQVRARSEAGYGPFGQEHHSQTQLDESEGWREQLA
Procedure: as §1

ectodomain of EphA3 = target: T3, ectodomain of EphA3 (Homo sapiens, UniProt P29320); experiment: In vitro binding (Protein-A pull-down) assay; conditions: EphA3-Fc alone, without ephrin
T3 construct: incubated with Fc-tagged ectodomains of Eph-A3, EphB2, EphB4 and ephrin-A2, ephrin-A5, ephrin-B2 (R&D systems); purchased R&D systems
T3 sequence (P29320 21-541 limits assumed): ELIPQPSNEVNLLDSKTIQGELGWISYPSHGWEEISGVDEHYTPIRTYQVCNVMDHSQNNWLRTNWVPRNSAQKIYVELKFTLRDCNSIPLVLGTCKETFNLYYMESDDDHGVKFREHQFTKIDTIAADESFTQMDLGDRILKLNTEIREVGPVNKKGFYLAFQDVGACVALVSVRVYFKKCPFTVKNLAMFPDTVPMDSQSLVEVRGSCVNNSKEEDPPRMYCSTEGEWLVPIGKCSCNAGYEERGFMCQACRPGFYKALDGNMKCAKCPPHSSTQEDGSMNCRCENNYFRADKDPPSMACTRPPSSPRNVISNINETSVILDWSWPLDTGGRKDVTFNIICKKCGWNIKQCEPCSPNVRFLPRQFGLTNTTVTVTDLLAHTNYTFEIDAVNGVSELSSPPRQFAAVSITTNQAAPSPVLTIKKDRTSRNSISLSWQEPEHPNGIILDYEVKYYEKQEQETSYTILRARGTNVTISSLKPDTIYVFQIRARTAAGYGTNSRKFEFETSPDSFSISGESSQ
Procedure: as §1

ephrin-A2 = target: T4, ephrin-A2 (Homo sapiens, UniProt O43921); experiment: In vitro binding (Protein-A pull-down) assay; conditions: ephrin-Fc captured on Protein A Sepharose
T4 construct: incubated with Fc-tagged ectodomains of Eph-A3, EphB2, EphB4 and ephrin-A2, ephrin-A5, ephrin-B2 (R&D systems); purchased R&D systems
T4 sequence (O43921 25-188 limits assumed): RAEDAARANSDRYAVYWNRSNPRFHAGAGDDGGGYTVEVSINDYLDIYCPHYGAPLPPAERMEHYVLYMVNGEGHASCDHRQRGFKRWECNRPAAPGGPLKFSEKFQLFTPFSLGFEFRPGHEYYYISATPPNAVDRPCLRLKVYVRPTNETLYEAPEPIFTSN
Procedure: as §1

ephrin-A1 = target: T5, ephrin-A1 (Homo sapiens, UniProt P20827); experiment: In vitro binding (Protein-A pull-down) assay; conditions: ephrin-Fc captured on Protein A Sepharose
T5 sequence (P20827 19-182 limits assumed): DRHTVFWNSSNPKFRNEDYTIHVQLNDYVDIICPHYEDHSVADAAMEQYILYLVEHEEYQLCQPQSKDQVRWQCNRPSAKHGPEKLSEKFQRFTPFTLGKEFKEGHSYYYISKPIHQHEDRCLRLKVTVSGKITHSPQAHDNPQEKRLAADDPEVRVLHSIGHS

[1] = target: T6, EphA3/ephrin-A5 Fc complex (Homo sapiens, UniProt P29320+P52803); experiment: HTRF / FRET assay of EphA3/ephrin-A5/ADAM10D+C complex formation; type: binding; conditions: unlabelled protein at increasing concentrations, 320 nM complex
T6 construct: Fc fusion proteins of the ephrin-A5 and EphA3 extracellular domains fused to the hinge and Fc region of human IgG1 were produced as described
T6 sequence (P29320 21-541 limits assumed): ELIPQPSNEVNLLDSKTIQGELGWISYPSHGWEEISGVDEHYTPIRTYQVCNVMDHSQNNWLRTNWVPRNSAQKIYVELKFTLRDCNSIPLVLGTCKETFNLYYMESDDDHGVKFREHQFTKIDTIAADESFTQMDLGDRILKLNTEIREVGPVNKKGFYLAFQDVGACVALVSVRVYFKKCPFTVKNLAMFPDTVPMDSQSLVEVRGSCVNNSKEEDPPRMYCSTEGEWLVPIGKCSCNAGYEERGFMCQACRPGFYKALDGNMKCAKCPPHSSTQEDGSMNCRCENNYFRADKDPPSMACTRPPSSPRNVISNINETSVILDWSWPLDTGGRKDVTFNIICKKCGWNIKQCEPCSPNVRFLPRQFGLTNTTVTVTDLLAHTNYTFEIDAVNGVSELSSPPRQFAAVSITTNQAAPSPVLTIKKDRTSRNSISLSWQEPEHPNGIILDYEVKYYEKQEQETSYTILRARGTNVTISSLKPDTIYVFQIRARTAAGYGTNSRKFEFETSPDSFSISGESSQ
T6 sequence (P52803 21-203 limits assumed): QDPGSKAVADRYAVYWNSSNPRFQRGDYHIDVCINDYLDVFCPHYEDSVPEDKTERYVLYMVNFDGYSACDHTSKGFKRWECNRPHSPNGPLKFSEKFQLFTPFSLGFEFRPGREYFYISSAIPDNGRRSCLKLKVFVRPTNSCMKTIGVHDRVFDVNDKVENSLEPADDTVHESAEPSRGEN
Procedure: FIG. 6. Fluorescence Energy Transfer (RET) analysis monitoring the formation of EphA3/ephrin-A5/ADAM10D+C complexes. • A) The proposed screening approach for inhibitors of the complex formation is based on a Homogeneous Time Resolved Fluorescence (HTRF™) Assay using a Eu^3+ chelate labeled donor and a XL665 labeled acceptor protein. Interactions between ADAM10 and its substrate, the EphA3/ephrinA5 complex are measured using (normalized) emission at 665 nm: the interaction brings the labels into proximity and triggers fluorescence resonance energy transfer (FRET), which initiates a chemical reaction cascade to produce an amplified fluorescent signal. […]
In this regard, screening or identification of inhibitors of complex formation is based on high-throughput homogeneous time resolved fluorescence (HTRF™) technology utilising donor and acceptor fluorescence labels that are conjugated to Fc-tagged proteins. An interaction between proteins brings the labels into proximity and triggers fluorescence resonance energy transfer (FRET), which initiates a chemical reaction cascade to produce an amplified fluorescent signal. […]
The proposed drug screening approach is based on homogeneous time resolved fluorescence HTRF™ technology utilising donor and acceptor fluorescence labels that are conjugated to Fc-tagged proteins. […]

- amount of EphA3-bound (complexed) ephrin-A5 (EphA3/ephrin-A5 complex; single-chain ephrin-A5 lacking Fc, captured via EphA3-Fc): notably increased
- binding to EphA3 ectodomain (ectodomain of EphA3): no interaction was seen
- binding to ephrin-A2 (ephrin-A2): bound
- binding to ephrin-A1 (ephrin-A1): bound
- inhibition of the labelled ADAM10D+C - EphA3/ephrin-A5 interaction (A665/A620) [1]: competitive inhibitor
B1: ADAM10D+C: recombinant bovine Adam10 disintegrin and cysteine-rich domains (residues 455-646), Fc tag removed (protein)
chain: SGQPICGNGMVEQGEECDCGYSDQCKDECCYDANQPEGKKCKLKPGKQCSPSQGPCCTAHCAFKSKTEKCRDDSDCAKEGICNGITALCPASDPKPNFTDCNRHTQVCINGQCAGSICEKHGLEECTCASSDGKDDKELCHVCCMKKMEPSTCASTGSVQWNKYFLGRTITLQPGSPCNDFRGYCDVFMRCR
- binding to EphA3/ephrin-A5 complex (EphA3/ephrin-A5 complex; EphA3-Fc plus untagged ephrin-A5): readily bound and formed a stable complex; also recorded: binds
- binding to EphB4/ephrin-B2 complex (EphB4/ephrin-B2 complex): little or no association; also recorded: does not bind
